According to the domain aggregation screens of Martell et al. (2025):

Assay: soluble fraction after stress (log2 fold change); higher = more stays soluble; pooled small domains, quantitative proteomics
Settings: stress: 50 degC
In short: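 Quantitative proteomics served as the high-throughput read-out for pooled custom libraries of small protein domains. Each was stressed at 50°C. Aggregation propensity is expressed as the base-two log fold change in soluble protein after stress. A higher value means a larger share of the protein remains in solution.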

Sequence | soluble fraction (log2)
HMTQSQSLQSQFEQLEKAYQDNLHLLSPKQKLIIQEAGKIIQQLPQQAQIQAKVNLYQSLSAEISKESQQ | 0.118
HMGGVEWLTHPIGPRDSLQVLARAGLEARPTSDGDYEIYGQERWPQRDQARLMGWLRRFGQWVWQALYDK | -0.378
HMDLSYPFTTVTTDNVNMRRSASSSSVVLERIDKGDSITVLGTSGNYYKVSYNDRTGYVLKQYVDVSAATT | -0.173
HMDTSKIDYSEFITMLDKGEVESVVLKSDTLTVTLKHGTGMAAQTKTVTLMEDLSELTKRLEKAGVKSFDK | 0.306
HMHTSEDLEKLLTRYFQSHESINRQQFEQLSGFTRTTASRRLKALVEAGKLKNIGLHHFPVYKPTEGNF | -0.354
HMTSPLQIHPNPATKHIELGLESPEVVLIKDINGKTVYQELVAPNQYIDIEHLKNGIYFIESKNKFGKLIK | 0.169
HMKNEFRVYPNPANKEIVTFNQTQDIEVYDTLGKLVLKAKNTNTLDTKSFHSGIYFIKTGSGLTRKLVV | 0.107
HMKPVSEMDNMEWVREQYFQNMIYEIGEWVKDKKTGIVGEIVKRGTNYVTIVQEDFSLHKIWLEDLETTE | -0.325
HMGQKASEVEKIFVELQQQIIRGDLPPGYRLVESQIAAQFGVSRTPARLAIERLATAGLVAHETNRGATVH | -0.42
HMVSGLEILKIQVQDHPSDWRWALLLARTHYENGNREAAVRTLRPLQRLHPDRLEVMTLWALLA | -0.00253
HMDWREMTAWMAELLKRRTGDDVETWNARVRESGAHDEASLRAWLTEQGVTGYAQTLLVMERFGYPDFF | -1.22
HMEKILSYKALMNDAGKRIDQFLANNEKDISRTRIKSLILEGSLKLDNNIINDPSYKIKENDVFTLFIPEA | -0.429
HMDGQPQLLIKNGQLLVSTALKNGMSANDLMFRLRTEGITDIRYVKRAVLEQNGQLTITQVGDD | -0.105
HMLGITEGSLVRVIRSPNFGKIGTVAELPAELRMMESETMVRIAIVEIEGTNFEIPRSNLEVLET | -1.55
HMETISEIWRLIDGLDEIYRVPLTMYYRSNRSVREIAETLGLSARTVETRIYRARRMIREKWSN | -2.23
HMPPNPELGKKLLKLRKEFKMTQDDVANILGMSRTSFSKYENGIANPPLQVMRKLASIYNVGLEYLI | -1.04
HMIINLGELLKMLEVNKYQDAMDALDSLIEEGGSLEKIESLHEIRQHTHAMNFREAERLLSILIESEGA | -0.746
HMGDADDLTRIKGIGPKLSKTLNELGIYHFRQIAGWQSDEADWVDDYLSFKGRVMREQWIEQAQKFAS | -0.392
HMQSMEIDENEIPSIDKLSEYIEYFKRIYNALFDDKQLAITNIDVLERHFANNFNTLRFKMDE | -0.0595
HMDDLSPEENKVIGAQVREELARRRLSRQHLADKAKISLSTLEKALTGTRPFTLASVVRIEEALQLQLRK | -0.484
HMYEGLPVTLIIDGRVIEANLAKANRDMAWLERELANSGVRSHHDVFFATLDSRGQLYYQVKN | -0.143
HMFTGELESRVFELNYVDGLVASAALAGVLTDKGSATPIASRAGGENDMLLVVDRIASYSQIEKIITQLD | -0.0977
HMSDSGLPLPRFVSLGDDRVNARAGPGFRFPINWVYLRKNFPVEVIDEFGHWRRIKDIDGIEGWIHLSML | -0.775
HMFAQDKKFITYKVKEGETVQSISKALSITPYDLLKLNPDIKDNVSQDDLLIIPNKQYDPLGDI | 0.144
HMEFTFTLPRGYIDDTGMIHREGTMRLANAADEILPLKDPRVQQNPGYLTIILLARVITKLGSL | 0.277
HMYYDDEELDDYRGKASDAYTAAEVEQFEEVLTTMRPEEVHGWLRSLQLRGVALPDALKDEAYMIVSEQAE | -0.252
HMQIYLTPEQFKIIDFMEQMGKITVKDVMDILNIPKRTAQLHLQKLKTLKMIAQTGKGPSSAYLL | -0.959
HMNMAVELEDGTQIFVFSEDGEFAGKRAVIADEEGRPTEENAPAGTHTLRDGRSIVVGEGGVIESVVET | 0.0438

Sequence | soluble fraction (log2)
HMDLVESYDLKIIYTSELINLLIDSSRLEEALNLFKDLKDEIDDVENLGFSAKNNLDYMESKLLHLG | -1.83
HMAAEELTVDKILTAQSFGVTAEAILAKVNDPANTVATLTQADVDRLRAAGVPEGVVTALQARAPQ | 0.0975
HMLLSHTAQREGELLTFLRGELALSSGLVKRLKWQNAFFLDGAPVHTNARVKPGQEITVRIEE | -0.143
HMPYHSEAWHKVMKSHWLTLSREEAYMHEGRTGASTINIVFQRELGREATQEEIESIYQEKSVLFNSYP | -1.46
HMHQVHKIDGVKYYLHLVEKGNTLYGISKQYNVSVERIEKANTEALSDGLKENQTLLIPVTSDNKKT | 0.0414
HMDPPVDLTPREQQVLSRIALGMSDKAIAAELGVSHQTVRNHVARIYAKIKVHSRSQAIVWAREKGIP | -0.185
HMGSNATIKYAIKGDESLVQVAQKFNVTVSELRSWNNISAFENAKTGQELVINVPASKYETYFALANT | 0.22
HMNDMWADITINANGKATLVVHTHEIKYLGLTGHLGKMEINGTAKEPVKDSSGDVVDYYFTFTDLDASMF | 0.0763
HMNADAIVGRTGVVTEAIAADGFGRVQIDGDSWKAKASGNNGIDVGAKVRVLRIDSIILTVEK | 0.0422
HMSGMEKLAIQEIEKEIKSFVKGDILIELTGKNRATAYVSEKNVGALIGKKGERINSIEKRLGVGIDVRPY | 0.00444
HMESWNRARILEKIRELHAQGVALNNASMRRLGYRGMMEAAARPQNFGSWEAAVRAAGIDYDRV | -0.00832
HMNSSLFLARQVHALRKKAGLTLQQLSRKSDVSVSTLSKIEKGQLSPTYEKIVSLARGLDVPIAALFHE | -0.976
HMRLEEVSVPQRLLAAIAEEREVQIGIVDGRGGTRVLRVEPLALEGGRLRARDVESGEEFTVLIHRVLL | -0.274
HMGPESKLTDAIKDYIYALYENLKGKSKFRNTIIEEVKKLYGVDISRESIRRVVNQKTDAETTENDDDEKA | ≥ 0.62
HMKTEVNITPGIIDWIERYVQTDKISSSMTEDFQHWKSGTKKPTFNQVEAFSKAINVPLGYFFLKTPPAE | -0.302
HMKYNETEFKNLVAKLYNGEIEIVGKFTGLSYPILVKDKYGIMLSQKANLILNYRPTINIALNKTEYAMN | -0.0487
HMKSEIRKKNSQIILDAAEHEFSVHGYRGTSVQMIADRSGLPKANLHYYYKSKSALYGAVLDRIL | 0.202
HMSTFKSYRGKITASSGVNIRTGAGTNYNKNGALTYNSVVTIVDEKKVSGTTWGKLADGRGWISLDYLKK | -0.554
HMLLRVGGLVKDGSVRTDNDLGIKFIIEDNLAEVSVLYNGILPDLFREGQGVIAEGKFIDNIFIANEIVA | -0.519
HMHPTDMKLTARLEEGAQFVRTQQLSKAIEIFTEVIKLDQNWAEAWNKRATVFYMMGKFKQSQEDIDKVLA | -0.0571
HMGLLLSQLDKDYQRYIDLADSTFRDNQLAVSRGWYNRALGVKAAEKYPKDQIAEIEKKIAERM | -0.181
HMDIANEQEQIFITAMRNDDFNPILELKMKGYQPSKNVLKSLQPDVSSTTFIAAAKIFQMEGVL | -0.144
HMTTELDTTAITPIIQKVLKANPDVVAKYKAGQQQVIGFLMGQVMRELSTKPNPKELQSLIVAQLQQA | 0.0755
HMQDTRSHARKMLAAIEALLEGRSGSDIQAYTIHNRSITKMTVPELVKWRSYYQQQVRSEDAAASLA | -0.129
HMFTDEELEHIRSALIQAGIRLSKELGLQKMSVEKLTAAVGIAKGSFYMFFGSKEDFILEVAEYTGAQ | -0.582
HMKTGNIVMVNLGWKGKYYSIKMFFPQVSKPSRKDVQDQIEKIYPGGKLYTFVVSNYEPGEPMLHA | -1.06
HMLSDAAAMESIAYEAIRQMEPDTYYIIGAGTTTRGIMEVLGLKNTLIGVDLIRNKELVANDLGGKELLSY | 0.0353
